Experimental data from patent US20190338026A1 (University of Texas, published 2019).
Residue numbers refer to the chain shown, from its start.

T1: human LAIR1 extracellular domain (ECD) protein with 6 HIS tag at the C-terminus (human, UniProt Q6GTX8 22-165)
T1 construct: Produced recombinantly in HEK293 cells; the whole entry is named here; also called LAIR1 ECD; LAIR1-ECD
T1 chain: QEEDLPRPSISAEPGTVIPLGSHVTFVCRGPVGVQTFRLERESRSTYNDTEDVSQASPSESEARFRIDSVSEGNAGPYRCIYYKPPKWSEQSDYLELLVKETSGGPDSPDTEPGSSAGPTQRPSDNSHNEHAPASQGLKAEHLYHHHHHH

T2: LAIR1 on LAIR1 reporter cells (human, UniProt Q6GTX8 22-165, limits assumed)
T2 chain: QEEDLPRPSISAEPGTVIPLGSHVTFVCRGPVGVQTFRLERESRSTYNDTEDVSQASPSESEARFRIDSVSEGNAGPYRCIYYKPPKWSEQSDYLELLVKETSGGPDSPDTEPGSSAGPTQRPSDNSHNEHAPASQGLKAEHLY

B1: LA-60 (antibody, V domains shown)
VH: EQSLESGGGLVQPEGSLTLTCTASGFSFSNSYYMCWVRQAPGKGLEWIGCIYTGSSSGTYYASWAEGRFTISKTPSTTVTLQMTSLTAADTATYFCSRKLTNFNGAYLDLWGPGTLVTVSS
VL: ELVLTQTPASVEAAVGGTVTIKCQASQSIYSYLAWYQQKPGQPPKVLIYKASTLASGVPSRFKGSGSGTEFTLTISDLECADAATYYCQNNNGGSDNTFGGGTEVVVK
notes: Rabbit monoclonal IgG; also called mAb LA-60
B2: LA-82 (antibody, V domains shown)
VH: EQSLEESGGDLVKPGASLTLACTASGFSFSDGYYMCWVRQAPGKGLEWIGCIHSSSGSIYYASWAKGRFTISKTSSTMVTLQMSSLTAADTATYFCARDSESYGYNPCELWGPGTLVTISS
VL: ELVMTQTPASVSEAVGGTVTIKCQASQTISNYLAWYQQKPGQRPKLLIYAASSLASGVSSRFRGSRSGTEYTLTITDLECDDAATYYCQCTYYGTTYIGGAFGGGTEVEIK
notes: Rabbit monoclonal IgG; also called mAb LA-82
B3: LA-61 (antibody, V domains shown)
VH: EQLMEESGGRLVTPGTPLTLTCTASGFDVNAYHMGWVRQAPGKGLEWIGYIYSGGTIFYANWAKGRFTLSRTSTTVDLKITSPTTEDTATYFCARGGYDNYNILYDLWGPGTLVTISS
VL: ELDMTQTPASVSEPVGGTVTIKCQASQSISVYLAWYQQKPGQPPKLLIYDASTLTSGVPSRFKGSGSGTEFTLTISDLECADAAAYYCQSYDGTPTAAFGGGTEVVVK
notes: Rabbit monoclonal IgG; also called mAb LA-61
B4: LA-145 (antibody, V domains shown)
VH: SSSVEESGGRLVTPGTPLTLTCTVSGFSLSSYVMGWVRQAPGKGLEWIGTISIRSNTYYASWAKGRFTISKTSTTVDLKITSPITEDTATYFCARGAGNVYYSDYYFSLWGPGTLVTISS
VL: ELVMTQPPASVSAAVGGTVTINCQASQNIYSNLAWYQQRPGQPPKLLIYKASTLASGVPSRFKGSGSGTDYTLTITDLECADAATYYCQTYYNMMDDGAAFGGGTEVEIK
notes: Rabbit monoclonal IgG
B5: LA-111 (antibody, V domains shown)
VH: EQSVEESGGGLVAPGGSLTLTCTVSGFSLSNYHMGWVRQAPGKGLEWIGYIYTHGTTFYASWAKGRFTISKTSTTVDLKMTRLTTGDTATYFCARGGYADYNILYNLWGPGTLVTISS
VL: ELVLTQTPASVEAAVGGTVTINCQASQSISSYLAWYQQKPGQPPKLLIYDASDLASGVPSRFKGSRSGTEFTFTISDLECADAATYYCQTYDSSTTAAFGGGTEVEIK
notes: Rabbit monoclonal IgG
B6: LA-56 (antibody, V domains shown)
VH: SSSVEESGGRLVTPGTPLTLTCTVSGFSLSAYWVGWVRQAPGKGLEYIGFVDVDIYYASWARGRFTISKTSSTTVDLILTSPTMEDTATYFCVRMSYNAMDLWGPGTLVTISS
VL: ELDLTQTASSVSAAVGDTVTINCQSSESVYKDNFLSWYQQKPGQPPKLLIYRASTLASGVPSRFKGSGSGSQFTLTISDVVCDDAATYYCSGYRNSHDGLPFGGGTEVEIK
notes: Rabbit monoclonal IgG; also called mAb LA-56
B7: LA-245 (antibody, V domains shown)
VH: QSLQESRGRLVTPGTPLTLTCTASGFSLSSYHMGWVRQAPGKGLEWIGYIHTNRNTWYANWAKGRFTISKTSSTTVNLRMTSPTTEDTATYFCARGSYGDYNFLFDVWGPGTLVTVSS
VL: ELVMTQTPASVSEPVGGTVTINCQASEDISIYLAWYQQKPGQPPKLLIYDASTLESGVPSRFSGSGSRTQFTLTISDLECADAATYYCQQYSTTDTNNLFGGGTEVEIK
notes: Rabbit monoclonal IgG
B8: LA-171 (antibody, V domains shown)
VH: EQSVEESGGRLVTPGGSLTLTCTVSGFSLSSYNMGWVRQAPGKGLEYIGWISLGGNTYYASWVNGRFTISKTSTTVELKISSPTTEDTATYFCARGAGSLYYGDYYFTLWGPGTLVTISS
VL: ELVLTQTPSSVSAAVGGTVTIKCQASQSIYSNLAWYQQKPGQPPKLLIYKASNLASGVPSRFKGSGSGTEYTLTISDLECADAATYYCQNYYGINDYGAAFGGGTEVVVK
notes: Rabbit monoclonal IgG
B9: LA-199 (antibody, V domains shown)
VH: EQSVEESGGRLVTPGTPLTLTCTASGFSLSSYAMIWVRQAPGEGLEWIGDIYAGGGATYYASWAKGRFTISKTSTTVDLKITSPTTEDTATYFCARAYGSGYDLWGPGTLVTVSS
VL: ELDLTQTPASVEVAVGGTVTIKCQASQSISSYLSWYQQKPGQPPKLLIYYASTMASGVPSRFSGSGSGTQFTLTISDLECADAATYYCQQGDSRSNVDNIFGGGTEVVVK
notes: Rabbit monoclonal IgG
B10: LA-6 (antibody, V domains shown)
VH: EQSVEESGGDLVKPEGSLTLTCTASGFSFSSGYYMCWVRQAPGKGLEWIGCIHSSSGNIYYASWAKGRFTISKTSSTTVDLQLTSLTAADTATYFCARDSEVYGWNPNDLWGPGTLVTVSS
VL: ELDMTQTPASVSEPVGGTVTIKCQASQSISSYLAWYQQKPGQRPKLLIYGASNLASGVSSRFKGSRSGTQFTLTITDLECDDAATYYCQCSYYGNSYVGGAFGGGTEVVVK
notes: Rabbit monoclonal IgG; also called mAb LA-6
B11: LA-259-1 (antibody, V domains shown)
VH: QSVKESGGRLVTPGTPLTLTCTASGFSLYKYNIQWVRQAPGKGLEYIGASTYAGYTYYASWAKGRVTISRTSTTVDLKMTSPTTEDTATYFCARHIDGDYSGYALWGPGTLVTISS
VL: ELVLTQTPASVSAAVGGTVTIKCQASQSIGTWFAWYQQKPGQSPKLLIYGPSKLASGVPPRFKGSGSGTEFTLTISDLECADAATYYCQSTYFGVDYLGGTFGGGTEVVVK
notes: Rabbit monoclonal IgG
B12: LA-142-1 (antibody, V domains shown)
VH: B11 VH with Q1A, S2A, I114V
VL: B11 VL with V109E, V110I
notes: Rabbit monoclonal IgG
B13: LA-142-2 (antibody, V domains shown)
VH: B11 VH with Q1A, S2A, I114V
VL: ELVLTQTPASVSAAVGGTVTIKCQASQSIGTWFAWYQQKPGQSPKLLIYGASNLASGVSSRFKGIRSGTEYTLTISDLECADAATYYCQCSDVGNTYGAAFGGGTEVEIN
notes: Rabbit monoclonal IgG
B14: LA-89 (antibody, V domains shown)
VH: QSVKESGGRLVTPGTPLTLTCTVSGFSLSSNAISWVRQAPGKGLEWIGYIYGDGRTFYASWAKGRFTISKTSTTVDLKMTSLTSEDTATYFCIKSLHLWGPGTLVTISS
VL: ELDMTQTASPVSAAVGGTVTINCQSSQSVYNKNQLFWYQQKPGQPPKLLIYDASTLASGVPSRYKGSGSGTQFTLTISGVQCDDAATYYCLGEYTGNIYTFGEGTEVVVK
notes: Rabbit monoclonal IgG; also called mAb LA-89
B15: LA-29 (antibody, V domains shown)
VH: SSSVEESGGGLVQPEGSLTLTCTASGFSFSSRYYMCWVRQAPGKGLEWIACIYNGDGSRYYASWAKGRFTISKTSSTTVTLQMTSLTAADTATYFCVRDRHTAFVDYGDDNLWGPGTLVTVSS
VL: ELDLTQTPASVSEPVGGTVTIKCQASQSIYSNLAWYQQKPGQPPKLLIYRASTLASGVPSRFKGSGAGTEFTLTISDLECADAATYYCQCTYDGISYVPSSFGGGTEVVVK
notes: Rabbit monoclonal IgG; also called mAb LA-29
B16: LA-141 (antibody, V domains shown)
VH: QSLEESGGRLVKPDESLTLTCTVSGFSLSSNAMSWVRQAPGKGLEWIGYIYGDGRTFYANWAKGRITISRTSTTVDLKMTSLRTEDTATYFCVKSLILWGPGTLVTISS
VL: B14 VL with A8P, Q27H, K32A, F36Y, Y64F, T95S, T100V, V108E, V109I, K110N
notes: Rabbit monoclonal IgG
B17: LA-258-1 (antibody, V domains shown)
VH: QSVKESGGDLVKPEGSLTLTCKASGFSFSNSYYMCWVRQAPGKGLEWIACIYTGSTSGTYYASWVNGRFTISKTPSTTVTLQMTSLTVADTATYFCSRKLTNFNGAYLDLWGPGTLVTISS
VL: ELVLTQTPASVEAAVGGTVTINCQASQSISNLLAWYQQKPGQRPKLLIYRASTLASGVSSRFKGSGSGTEYTLTISGVQCDDAATYYCQQGYTSNNVDNAFGGGTEVEIK
notes: Rabbit monoclonal IgG

Molecular target: T1, human LAIR1 extracellular domain (ECD) …
Assay: ELISA, LAIR1 ECD coated, mAb titrated, anti-rabbit HRP
Experimental: (§1) The inventors then used a concentration titration (0-10 μg/ml) by ELISA to determine the LAIR1 monoclonal antibody (mAbs) binding to human LAIR1 ECD. […] For FIGS. 2-39, X axis indicates the antibody concentrations and Y-axis is binding signals, measured as OD (450 nm). To perform the ELISA assay, LAIR1 ECD recombinant protein was coated on high absorption 96-well plates. Serial diluted (3-fold) LAIR1 mAb was added to the coated/blocked plates and detected using goat anti-rabbit F(ab′)2 conjugated HRP as secondary antibody. All assays were repeated 3 times and the titration curves were fitted using 4-parameter fitting curve using the GraphPad software for EC₅₀ estimation.
(§2) Serial dilutions of the LAIR1 monoclonal antibodies (IgGs or scFvs fragments), starting from […] and 3-fold titration down for 12 steps, were added to the 96-well plate for binding by incubating 45 minutes at 37° C. with a cover on the assay plate. Then the plates were washed with PBS containing Tween 20 (0.05% concentration) for 3 times and PBS one time. […] Detection was conducted by adding HRP substrate, TMB (ThermoFisher) for 10 minutes, and stopped by adding 50 μl/well of 2N H2504. The plates were read for absorbance at 450 nm using a plate reader (SpectraMax M4, Molecular Devices). Data were collected and graphed using a 4-parameter fitting curve with GrapPad Prism 7 software for EC₅₀ calculation.

B1 and B2 are the same in EC50: 0.1 nM for the first, 0.1 nM for the second.

Compared with B3, B4 is 1.6-fold higher in EC50: 0.05 nM for the first, 0.08 nM for the second.

Going from B5 to B6, the EC50 falls from 0.09 nM to 0.05 nM (1.8-fold).

B7 and B8 are the same in EC50: 0.09 nM for the first, 0.09 nM for the second.

First: B9
Second: B10
The EC50 of the first is 2.3-fold higher: 0.16 nM for the first, 0.07 nM for the second. The second is the more potent here.

B11 and B12 are within 1.5-fold of each other in EC50: 0.23 nM for the first, 0.25 nM for the second.

First: B13
Second: B14
The EC50 of the first is 3.5-fold higher: 0.28 nM for the first, 0.08 nM for the second.

First: B15
Second: B16
The EC50 of the first is 2.5-fold lower: 0.02 nM for the first, 0.05 nM for the second. The first is the more potent here.

Binder B17 has an EC50 of 4.21 nM.

Molecular target: T1, human LAIR1 extracellular domain (ECD) …
Assay: ELISA, LAIR1 ECD coated
Experimental: as §1, §2

B1 and B2 are the same in “EC50 (read off the curve)” value: ~10 ng/mL for the first, ~10 ng/mL for the second.

Going from B3 to B4, the “EC50 (read off the curve)” value falls from ~20 ng/mL to ~10 ng/mL (2-fold).

B5 and B6 are within 1.5-fold of each other in “EC50 (read off the curve)” value: ~10 ng/mL for the first, ~7 ng/mL for the second.

B7 and B8 are the same in “EC50 (read off the curve)” value: ~10 ng/mL for the first, ~10 ng/mL for the second.

Compared with B9, B10 is 2-fold lower in “EC50 (read off the curve)” value: ~20 ng/mL for the first, ~10 ng/mL for the second.

B11 and B12 are within 1.5-fold of each other in “EC50 (read off the curve)” value: ~30 ng/mL for the first, ~40 ng/mL for the second.

Compared with B13, B14 is 4-fold lower in “EC50 (read off the curve)” value: ~40 ng/mL for the first, ~10 ng/mL for the second.

B15 and B16 are the same in “EC50 (read off the curve)” value: ~10 ng/mL for the first, ~10 ng/mL for the second.

Molecular target: T2, LAIR1 on LAIR1 reporter cells
Assay: cell-based or functional assay

Compared with B1, B2 is lower in “GFP+% of LAIR1 reporter cells, collagen I coated, soluble Ab” value: 6.5% for the first, 1.1% for the second.
